Measured values published in the supplement of paper PMC12042874.
± gives the uncertainty stated by the source.

Experiment: amyloid nucleation score (Sup35N fusion, yeast selection) (log enrichment); library NNK3; higher = more nucleation; inactive = no reads after selection
Method in brief: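 In psi-negative yeast, Sup35N fusions carrying peptides of 20 random codons were induced with 100 μM copper sulfate for 24 hours. The cells then grew 7 days at 30°C on medium lacking adenine and uracil, and plasmid inserts from input and output were Illumina-sequenced, excluding sequences with under 100 input reads. Nucleation score is the DiMSum log enrichment of output over input reads, centred on the mode score of non-aggregating sequences.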

Substance	amyloid nucleation score
AANVESPKIYKWCINKRGMV	inactive
AASPQARGCILSCNVSRNQT	inactive
AASRMLWPGWNIRPSDAVVE	inactive
ACAATYLIADAFYELSGIGL	inactive
ACFWLIDVTKWLTCYRRSSN	inactive
ACIVARARSSVVTCF	inactive
ACLQRVQVKIHLGFTQTSFV	0.487 ± 0.36
ACSLSWCHTGCY	inactive
ACSNWMRLMLVWNSTRNRVV	inactive
ADFKKVSSLLRSTGLVGGFR	inactive
ADKRFI	inactive
AEALCQFIYCFAASKLTGVC	inactive
AEASNGACLRLCWLVLVWMD	-0.206 ± 1.5
AFISSKARTYKIRMMPVPTS	inactive
AFLSLCKLDYSYANCLVIVV	inactive
AFSIYHRIIIMRFRKYNIFA	inactive
AFVFATAITELVYCSCLNRP	2.04 ± 0.089
AFVKFSRTWSSVSSLCGFQA	inactive
AFYLMLVS	1.12 ± 0.12
AGCAIALLYGWESLRAVFL	inactive
AGFAMYFGFVGYNFSFPWG	1.17 ± 0.19
AGGLSGDNWRRIDG	inactive
AGPVPIT	0.723 ± 0.25
AGSDHVLRDRHYVVMPQEFL	inactive

Substance	amyloid nucleation score
AGSILYGHYLDACGRHSRVI	inactive
AGTTEWRG	inactive
AGWIDAYRFYNELLLGLRDH	inactive
AHRRKLKWDNGHCNLRTKFR	inactive
AIEKGHK	0.235 ± 0.19
AIGMMASRWNLWCITLFLLK	inactive
AIINSVREPWAPAMAHTNNA	0.586 ± 0.21
AIRKL	inactive
AITVGLSGARRD	inactive
AIYVFIRLLYVNIHDTTPVR	inactive
AKCFFPGVNLMVGSQLFWLR	inactive
AKFARYSTYLPLLSVHDIND	inactive
AKWMAFSSSSFRSCFFSFKQ	-0.804 ± 1.8
AKWVLDFVKDRLPFRFCMLV	inactive
ALAMTFVNIDKSFFFNVYSM	2.89 ± 0.069
ALCANYCFAMFSDSGLRWTV	1.01 ± 0.09
ALCKCALG	inactive
ALFAGLIECQCDNILGPETG	inactive
ALFYHFL	inactive
ALLESFIKKRSMFLNVNGGF	inactive
ALLTFILVLIVEVVNWRKVC	0.961 ± 0.23
ALMCIHRLCPNIVPDQ	inactive
ALPREPESVLG	inactive
ALRQRNDCEPYIVRTFWVET	inactive

Substance	amyloid nucleation score
ALRRVMVICLFKLDSEAHST	inactive
ALSLYLISLWYGYSWYLRFD	inactive
ALSRMGEFEDYCLTMGKKVF	inactive
ALWLPITVDWMLESGCGGCY	inactive
ALYRSGLNFVIRVGTLLMIW	1.06 ± 0.12
AMCCF	inactive
AMFTRSRVSITLCGRWAYCS	inactive
AMIMSFFWRKVT	inactive
AMKSAW	inactive
AMSTGSSTWWYRSSKAIRGS	inactive
ANIFGVNTFGESRKHSIARC	inactive
ANLSRSSTLLSGVWSEV	inactive
ANRYNSITE	-0.765 ± 1.5
ANSTNKQC	inactive
ANVLFEVSACLAKGIVKVRR	inactive
APRGVSTDLDAVHRWYYSGR	-0.025 ± 0.88
APRLFKQIIVTQTDGSLEGE	inactive
APSNGRE	inactive
APTRSV	inactive
AQRVMD	inactive
AQYLLYINDPCTCVVATPCR	inactive
ARCVVAFIILGNYR	0.663 ± 0.21
AREYDWQDYILVSVMYTLVW	inactive
AREYMI	inactive

Substance	amyloid nucleation score
ARMLRYRHIAS	inactive
ARSIFARLQYSHLSSRGEVI	0.018 ± 1
ARSNRCSM	inactive
ASDKMELILLLTSYRSYYDC	inactive
ASGFLYSSSHLERNKLVNKF	inactive
ASGSFKPFFSVEWYLS	inactive
ASLMERSIMYFVLVNNPRSE	0.355 ± 0.29
ASRHSQMWIS	0.129 ± 0.88
ASRIDNIDWGGRKKLRNVEG	inactive
ASSLHDPMRYVQTFRISWCC	1.34 ± 0.12
ASTRNVGYRVT	inactive
ATAVMVRILQRACTFLDAKS	inactive
ATCWTLGNDVRFGMRAFTFV	inactive
ATDCLCEQRPVFPNKVKWQS	inactive
ATLDTER	inactive
AVDLV	inactive
AVEEHLIHLSCCVQAVNRRV	2.36 ± 0.074
AVGKM	-0.082 ± 0.88
AVIDRNYVRTALAVMIASGH	inactive
AVPNIL	inactive
AVRWQSGSTRFLSCWLWQKN	inactive
AVTKLILFVVSGGMLRVLEF	inactive
AVVARGGVLVGTLCFLFWLS	inactive
AVYGVFRRRS	inactive

Substance	amyloid nucleation score
AVYLCI	inactive
AWLMRLMSYLGSSGWE	inactive
AWLNFCPSHVLLLFESYLNV	inactive
AWNFNLKLKELRKTMTS	inactive
AWSWLRANSRTQFWSRGLKP	inactive
AWVLCVKERFRSAGCECTGF	inactive
AYADGYNLFWDYK	inactive
AYETFGNCRLVASVIIDGIS	inactive
AYINTRYGFFGNLVDDTKSS	inactive
AYLFLLWSW	inactive
AYRLEPT	inactive
AYSSHFTCRPYGFNLWSLGS	inactive
AYVFVYESYAWGNLRQ	inactive
AYYKCWNNATDLVTNVPPIH	inactive
CAFLFL	inactive
CALCRYC	inactive
CASLCHSSGVCRD	inactive
CCGVLQRMKISQKVN	inactive
CCIMLTWKRCLNKRLVTTDP	inactive
CCIMQPCSVVVYQWSQNRSR	3.14 ± 0.053
CCKSCSTLFLNFSLFNDLLT	inactive
CCKTFYY	inactive
CCNMYVSFTCWHRRRSFS	1.23 ± 0.13
CCRLVRHFE	inactive

Substance	amyloid nucleation score
CDEGSGWILFIRHLLLYWRG	inactive
CDFTKSNDTCMDTASMSLLV	inactive
CDFTRESYTDNTAASIPMLM	inactive
CDNWLSYMWFYGNGAAPEGR	2.06 ± 0.094
CDNYVLPNYRYLSGFFKFGL	inactive
CDWPPAFYQC	inactive
CDYIKAKSVTDVCGNP	inactive
CEDGA	-0.068 ± 0.75
CEGRHKFF	inactive
CEIVFQYVFNFFSPTTSVVC	1.54 ± 0.089
CERKQVYNDRRINS	inactive
CFAIWVCKSVR	inactive
CFASTRSGVILNYTMVVVDF	1.78 ± 0.098
CFDFSCVFLKEMQYGGETGS	1.07 ± 0.12
CFDLVCTLCFLFRLARVVEW	inactive
CFKRLVIIMGGLGAA	inactive
CFPCLWP	1.26 ± 0.12
CFQQVHN	inactive
CFRAGVIFIWGVHNSYYRTS	2.23 ± 0.082
CFSELIYMLLNVDGNFSLRV	inactive
CFTRLVRRGNSQIKRAPGEP	inactive
CFVAILNVIFGWSY	1.43 ± 0.069
CFVKGFTIETFWLKVVGIRG	inactive
CGDLVGTSKYSTLLEWRS	inactive

Substance	amyloid nucleation score
CGIYTFLRLRD	inactive
CGLQLQCMVEVLVVCPEQLL	0.737 ± 0.16
CGMLTGVIKNLDLTRRYKC	inactive
CGRRALSTELIVCLCSPFYV	inactive
CGTSHVMFWHVPRGVLKRMY	inactive
CHASVW	inactive
CHILKPWLGVRKPSPFCNYS	inactive
CIIFTRMATTGG	inactive
CIIRVYCFWFTDGDFYVLYR	inactive
CIREKLILIMTSRSIMLLKS	inactive
CIVLTVKCSLA	-0.669 ± 0.55
CKCVCNGAKDRFST	inactive
CKTVAYEYFTGLSLVLDFTR	inactive
CKVSAL	inactive
CKVTHSLI	inactive
CLALYRGRMLSGKVRRCTTS	inactive
CLEPNILVLIMEFVY	inactive
CLFRQTFCMGP	inactive
